pKd: −log10 of the molar value.
Molecular target: Alexa Fluor 488 labeled α-synuclein (UniProt P37840)
Experiment: MST; apparent; constant 50 nM αS-AF488, dilution series of 16 HSA concentrations (50 μM to 6.25 nM); 10 mM Na2HPO4, 1.8 mM KH2PO4, 137 mM NaCl, 2.7 mM KCl, pH 7.4; Monolith NT.115, LED power 20%, MST power 20, 40 and 80%, data normalised and averaged

pKd: 6.52
Substance: human serum albumin (from UniProt P02768 25-609) (natural protein)
